Assay results from paper PMC6486636, “LARP4A recognizes polyA RNA via a novel binding mechanism mediated by disordered regions and involving the PAM2w motif, revealing interplay between PABP, LARP4A and mRNA”.

T1: LARP4A 1-50 (Homo sapiens, UniProt Q71RC2 1-50)
T1 chain: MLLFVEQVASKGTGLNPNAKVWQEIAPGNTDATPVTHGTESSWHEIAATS


Legend:
LARP4A 1-50 = biological target: T1, LARP4A 1-50; experiment: EMSA; up to 200 uM protein; EMSA: 20 mM Tris pH 7.25, 200 mM KCl, 5% glycerol, 1 mM DTT, 0.1 mg/ml BSA, 0.01 mg/ml E. coli tRNA, on ice, gel at 4 C; MST: 20 mM Tris pH 7.25, 100 mM KCl, 0.2 mM EDTA, 1 mM DTT, 0.05% Tween-20, 25 C; conditions: protein: recombinant; tags: His-SUMO, cleaved; label: 5' 32P (EMSA); unlabelled (NMR, native MS); single strand
LARP4A 1-79 = LARP4A 1-79 (Homo sapiens, UniProt Q71RC2 1-79); experiment: as above; conditions: protein: recombinant; tags: His-SUMO, cleaved; label: 5' 32P (EMSA); unlabelled (NMR, native MS); single strand
LARP4A NTR [1] = biological target: T2, LARP4A NTR (Homo sapiens, UniProt Q71RC2 1-111); experiment: EMSA; with competitor tRNA; retains majority of affinity; Kd only in figure; EMSA: 20 mM Tris pH 7.25, 200 mM KCl, 5% glycerol, 1 mM DTT, 0.1 mg/ml BSA, 0.01 mg/ml E. coli tRNA, on ice, gel at 4 C; MST: 20 mM Tris pH 7.25, 100 mM KCl, 0.2 mM EDTA, 1 mM DTT, 0.05% Tween-20, 25 C; conditions: protein: recombinant; tags: His (TEV) or His-SUMO, cleaved; label: 5' 32P (EMSA); unlabelled (NMR, native MS); single strand
LARP4A NTD [2] = biological target: T3, LARP4A NTD (Homo sapiens, UniProt Q71RC2 1-287); experiment: EMSA; with competitor tRNA; low micromolar Kd, >100-fold tighter than La module; value only in figure; EMSA: 20 mM Tris pH 7.25, 200 mM KCl, 5% glycerol, 1 mM DTT, 0.1 mg/ml BSA, 0.01 mg/ml E. coli tRNA, on ice, gel at 4 C; MST: 20 mM Tris pH 7.25, 100 mM KCl, 0.2 mM EDTA, 1 mM DTT, 0.05% Tween-20, 25 C; conditions: protein: recombinant; tags: His tag (TEV) or His-SUMO, cleaved; label: 5' 32P (EMSA); unlabelled (NMR, native MS); single strand
LARP4A La module = LARP4A La module (Homo sapiens, UniProt Q71RC2 111-287); experiment: NMR; small shifts, almost exclusively RRM1; 100 mM KCl; EMSA: 20 mM Tris pH 7.25, 200 mM KCl, 5% glycerol, 1 mM DTT, 0.1 mg/ml BSA, 0.01 mg/ml E. coli tRNA, on ice, gel at 4 C; MST: 20 mM Tris pH 7.25, 100 mM KCl, 0.2 mM EDTA, 1 mM DTT, 0.05% Tween-20, 25 C; conditions: protein: recombinant; tags: His tag, TEV-cleaved; label: 5' 32P (EMSA); unlabelled (NMR, native MS); single strand
LARP4A NTR [3] = biological target: T2, LARP4A NTR; experiment: MST; 25 C; agrees with EMSA; Kd only in figure; EMSA: 20 mM Tris pH 7.25, 200 mM KCl, 5% glycerol, 1 mM DTT, 0.1 mg/ml BSA, 0.01 mg/ml E. coli tRNA, on ice, gel at 4 C; MST: 20 mM Tris pH 7.25, 100 mM KCl, 0.2 mM EDTA, 1 mM DTT, 0.05% Tween-20, 25 C; conditions: protein: recombinant; tags: His (TEV) or His-SUMO, cleaved; label: 5' fluorescein (FAM); single strand
LARP4A NTD [4] = biological target: T3, LARP4A NTD; experiment: as above; conditions: protein: recombinant; tags: His tag (TEV) or His-SUMO, cleaved; label: 5' fluorescein (FAM); single strand

LARP4A La module, sequence (Q71RC2 111-287): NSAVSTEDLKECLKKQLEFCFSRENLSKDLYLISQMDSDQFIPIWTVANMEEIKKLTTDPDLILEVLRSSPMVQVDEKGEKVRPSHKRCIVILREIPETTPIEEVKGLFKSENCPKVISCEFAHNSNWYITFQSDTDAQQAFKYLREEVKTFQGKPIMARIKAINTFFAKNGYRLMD

| Binder | binding result (LARP4A 1-50) | binding result (LARP4A 1-79) | binding result (LARP4A NTR [1]) | binding result (LARP4A NTD [2]) | binding result (LARP4A La module) | binding result (LARP4A NTR [3]) | binding result (LARP4A NTD [4]) |
| --- | --- | --- | --- | --- | --- | --- | --- |
| AAAAAAAAAAAAAAA (ssRNA) [oligoA15] | no binding | no binding | binds | binds | binds |  |  |
| AAAAAAAAAAAAAAAAAAAA (ssRNA) [5'FAM-oligoA20] |  |  |  |  |  | binds | binds |
